The values below come from US20180155451A1 (published 2018).

The target in assay [1] is T1, FcγRIIa H (human, UniProt P12318 34-217).
T1 construct: extracellular domain; also called FcgRIIa H type; 2aH
T1 sequence (looked up): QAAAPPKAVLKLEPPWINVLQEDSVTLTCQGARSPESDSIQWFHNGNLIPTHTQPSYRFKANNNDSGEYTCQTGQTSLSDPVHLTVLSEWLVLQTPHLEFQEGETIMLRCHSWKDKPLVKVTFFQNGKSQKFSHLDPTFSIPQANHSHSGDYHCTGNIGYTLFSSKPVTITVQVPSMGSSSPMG
As to the kind of experiment: SPR (Biacore), antibody captured on antigen-peptide chip, FcγR as analyte; binding relative to GpH7-A5/GpH7-B3/GpL16-k0 = 100. For orientation: Surface plasmon resonance follows binding to a sensor surface in real time, without labels.

For another assay, the target named is T2, FcγRIIb (human, UniProt P31994 43-217).
T2 construct: extracellular domain; also called FcgRIIb; 2b
T2 sequence (looked up): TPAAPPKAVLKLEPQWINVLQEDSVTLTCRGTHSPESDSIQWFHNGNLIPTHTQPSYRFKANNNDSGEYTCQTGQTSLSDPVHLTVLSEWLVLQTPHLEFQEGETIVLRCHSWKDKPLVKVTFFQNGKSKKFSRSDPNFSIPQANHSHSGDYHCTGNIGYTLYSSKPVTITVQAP
The assay is described as above.

Assay [2] concerns the target T1, FcγRIIa H. As to the kind of experiment: ratio of He/Con_2aH to He/Con_2b (relative SPR binding to FcγRIIa H over that of the same antibody to FcγRIIb).
Assay [3] addresses T3, FcγRIIIa extracellular domain with C-terminal His tag (human, UniProt P08637 17-208).
T3 construct: extracellular domain; also called FcgRIIIa; 3a; not shown: His tag at the C terminus
Put plainly: ratio of He/Con_3a to He/Con_2b (FcγRIIIa over FcγRIIb), SPR relative binding. As for the experimental part: (§1) The heterodimerized antibodies He Abs in which one of the H chains was introduced with an alteration were assayed for their binding activities to each activating FcγR and inhibitory FcγR according to the method described in Example 4. […] The activating FcγRs in FIGS. 26, 27, 28, and 29 are FcγRIa, FcγRIIa (R), FcγRIIa (H), and FcγRIIIa, respectively.
(§2) Analysis of interaction between objective antibody and the FcγR was carried out using Biacore T100 (GE Healthcare). HBS-EP+ (GE Healthcare) was used as the running buffer, and the measurement temperature was set to 25° C. Chips produced by immobilizing the antigen peptide by the amine coupling method to a Series S Sencor Chip CM5 (GE Healthcare), or alternatively, chips produced by allowing preliminarily biotinylated antigen peptides to interact with and immobilize onto a Series S Sensor Chip SA (certified) (GE Healthcare) were used. Antibodies of interest were captured onto an antigen peptide-immobilized chip, and allowed to interact to each FcγR diluted with running buffer. To regenerate and repeatedly use the chip, the antibodies captured on the chip were washed off by reacting 10 mM glycine-HCl, pH 1.5.

The target of assay [4] is T4, FcγRIIb extracellular domain with C-terminal His tag (human, UniProt P31994 43-217).
T4 construct: extracellular domain; also called FcgRIIb; 2b; not shown: His tag at the C terminus
T4 sequence (looked up): T2 sequence (looked up)
Put plainly: SPR (Biacore), antibody captured via antigen peptide, FcγR as analyte; binding relative to GpH7-A5/GpH7-B3/GpL16-k0 = 100.

The target of assay [5] is T3, FcγRIIIa extracellular domain with …. The description is as above.
Assay [6] deals with T5, FcγRIIa H (FcγRIIa type H, His at position 131), extracellular domain with C-terminal His tag (human, UniProt P12318 34-217).
T5 construct: extracellular domain; also called 2aH; FcgRIIa H; not shown: His tag at the C terminus
T5 sequence (looked up): T1 sequence (looked up)
Put plainly: ratio of He/Con_2aH (FcγRIIa H) to He/Con_2b (FcγRIIb), SPR relative binding. As to the method:
as §1, §2

Assay [7] deals with T5, FcγRIIa H (FcγRIIa type H, His at …). As to the kind of experiment: SPR (Biacore), antibody captured on antigen-peptide chip, FcγR as analyte; GpH7-A5/GpH7-B3/GpL16-k0 = 100. As to the method:
as §1, §2

The target of assay [8] is T6, FcγRIIb, extracellular domain with C-terminal His tag (human, UniProt P31994 43-217).
T6 construct: extracellular domain; also called 2b; FcgRIIb; not shown: His tag at the C terminus
T6 sequence (looked up): T2 sequence (looked up)
The description is as above. As to the method:
as §1, §2

T3 sequence (P08637 17-208): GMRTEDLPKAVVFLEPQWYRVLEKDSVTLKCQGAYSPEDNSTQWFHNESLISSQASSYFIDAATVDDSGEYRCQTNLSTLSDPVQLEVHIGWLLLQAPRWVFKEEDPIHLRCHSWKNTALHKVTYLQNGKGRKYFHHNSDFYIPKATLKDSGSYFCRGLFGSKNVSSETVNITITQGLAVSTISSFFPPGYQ

B1: GpH7-A5/GpH7-B3 variant E269_01G/GpL16-k0 (antibody, human IgG1, kappa)
heavy 1: not shown
heavy 2: not shown
light: DIVMTQSPLSLPVTPGEPASISCQASESLVHSNRNTYLHWYLQKPGQSPQLLIYKVSNRFSGVPDRFSGSGSGTDFTLKISRVEAEDVGVYYCSQNTHVPPTFGQGTKVEIERTVAAPSVFIFPPSDEQLKSGTASVVCLLNNFYPREAKVQWKVDNALQSGNSQESVTEQDSKDSTYSLSSTLTLSKADYEKHKVYACEVTHQGLSSPVTKSFNRGEC
notes: Heterodimerized anti-glypican-3 IgG1; substitution in only one H chain (the GpH7-B3 chain); also called He Ab
On to B1, for which, in the assay with FcγRIIa H [1], the He/Con_2aH was 71.5 % of HeCon Ab. The He/Con_2b with FcγRIIb was 51.5 % of HeCon Ab. Moreover, the “He_2aH/2b (IIaH/IIb)” value in the assay with FcγRIIa H [2] was 1.39.

B2: GpH7-A5/GpH7-B3 variant D270_03V/GpL16-k0 (antibody, human IgG1, kappa)
heavy 1: not shown
heavy 2: not shown
light: B1 light
notes: He Ab: the mutation stands only in the GpH7-B3-derived H chain; also called He Ab D270V
B2: in assay [3], the “IIIa/IIb (He_3a/2b)” value worked out at 1.52. Also, the He/Con_2b in assay [4] was 39.5 relative (control = 100). Besides, in assay [5], the He/Con_3a was 60.3 relative (control = 100).

B3: GpH7-A5/GpH7-B3 variant Q295_01G/GpL16-k0 (antibody, human IgG1, kappa)
heavy 1: not shown
heavy 2: not shown
light: B1 light
notes: He Ab: the mutation stands only in the GpH7-B3-derived H chain; also called He Ab Q295G
B3: the “IIIa/IIb (He_3a/2b)” value in assay [3] was 1.59. In addition, in assay [4], the He/Con_2b was 46 relative (control = 100). Moreover, the He/Con_3a in assay [5] is 73 relative (control = 100).

B4: GpH7-A5/GpH7-B3 variant D270_11K/GpL16-k0 (antibody, human IgG1, kappa)
heavy 1: not shown
heavy 2: not shown
light: B1 light
notes: He Ab: the mutation stands only in the GpH7-B3-derived H chain; also called He Ab D270K
For B4, the “IIIa/IIb (He_3a/2b)” value in [3] is 2.02. Besides, in assay [4], the He/Con_2b is 20.3 relative (control = 100). Further, in assay [5], the He/Con_3a is 41 relative (control = 100).

B5: GpH7-A5/GpH7-B3 variant S239_05P/GpL16-k0 (antibody, human IgG1, kappa)
heavy 1: not shown
heavy 2: not shown
light: B1 light
notes: Heterodimerized IgG1 (He Ab); mutation only in the GpH7-B3 chain; also called He Ab S239P
Turning to B5, the “He_2aH/2b (IIaH/IIb ratio)” value in assay [6] was 0.33. Besides, the “He/Con_2aH (relative binding activity)” value in [7] was 33.3 % of control. Moreover, the “He/Con_2b (relative binding activity)” value in [8] was 102 % of control.

B6: GpH7-A5/GpH7-B3 variant D270_08L/GpL16-k0 (antibody, human IgG1, kappa)
heavy 1: not shown
heavy 2: not shown
light: B1 light
notes: He Ab: the mutation stands only in the GpH7-B3-derived H chain; also called He Ab D270L
B6: the “IIIa/IIb (He_3a/2b)” value in assay [3] is 1.34. In addition, the He/Con_2b in [4] is 53.6 relative (control = 100). Besides, the He/Con_3a in assay [5] is 71.8 relative (control = 100).

B7: GpH7-A5/GpH7-B3 variant H268_04F/GpL16-k0 (antibody, human IgG1, kappa)
heavy 1: not shown
heavy 2: not shown
light: B1 light
notes: as for B1
In the case of B7, in the assay with FcγRIIa H [1], the He/Con_2aH is 111 % of HeCon Ab. The He/Con_2b with FcγRIIb is 89.6 % of HeCon Ab. Further, the “He_2aH/2b (IIaH/IIb)” value with FcγRIIa H [2] amounted to 1.24.

B8: GpH7-A5/GpH7-B3 variant D270_13S/GpL16-k0 (antibody, human IgG1, kappa)
heavy 1: not shown
heavy 2: not shown
light: B1 light
notes: He Ab: the mutation stands only in the GpH7-B3-derived H chain; also called He Ab D270S
With B8, the “IIIa/IIb (He_3a/2b)” value in assay [3] came out at 1.28. Further, the He/Con_2b in [4] is 44.2 relative (control = 100). Moreover, the He/Con_3a in [5] is 56.7 relative (control = 100).

B9: GpH7-A5/GpH7-B3 variant E269_19Q/GpL16-k0 (antibody, human IgG1, kappa)
heavy 1: not shown
heavy 2: not shown
light: B1 light
notes: He Ab: the mutation stands only in the GpH7-B3-derived H chain; also called He Ab E269Q
As for B9, the “IIIa/IIb (He_3a/2b)” value in assay [3] worked out at 1.47. Also, the He/Con_2b in assay [4] was 44.3 relative (control = 100). Also, the He/Con_3a in [5] was 65 relative (control = 100).

B10: GpH7-A5/GpH7-B3 variant D270_18N/GpL16-k0 (antibody, human IgG1, kappa)
heavy 1: not shown
heavy 2: not shown
light: B1 light
notes: He Ab: the mutation stands only in the GpH7-B3-derived H chain; also called He Ab D270N
As for B10, in [3], the “IIIa/IIb (He_3a/2b)” value was 1.4. The He/Con_2b in assay [4] was 40.3 relative (control = 100). The He/Con_3a in [5] is 56.5 relative (control = 100).

B11: GpH7-A5/GpH7-B3 variant V266_05P/GpL16-k0 (antibody, human IgG1, kappa)
heavy 1: not shown
heavy 2: not shown
light: B1 light
notes: as for B1
Regarding B11, the He/Con_2aH with FcγRIIa H [1] was 0.7 % of HeCon Ab. Besides, the He/Con_2b with FcγRIIb is 0.4 % of HeCon Ab. For the same molecule, the “He_2aH/2b (IIaH/IIb)” value in the assay with FcγRIIa H [2] came out at 1.91.

B12: GpH7-A5/GpH7-B3 variant Q295_09D/GpL16-k0 (antibody, human IgG1, kappa)
heavy 1: not shown
heavy 2: not shown
light: B1 light
notes: He Ab: the mutation stands only in the GpH7-B3-derived H chain; also called He Ab Q295D
B12: the “IIIa/IIb (He_3a/2b)” value in assay [3] was 1.34. Besides, the He/Con_2b in assay [4] was 60.8 relative (control = 100). Besides, the He/Con_3a in [5] is 81.5 relative (control = 100).

B13: GpH7-A5/GpH7-B3 variant D270_06M/GpL16-k0 (antibody, human IgG1, kappa)
heavy 1: not shown
heavy 2: not shown
light: B1 light
notes: He Ab: the mutation stands only in the GpH7-B3-derived H chain; also called He Ab D270M
Consider B13, for which the “IIIa/IIb (He_3a/2b)” value in assay [3] came to 1.38. The He/Con_2b in assay [4] is 48.2 relative (control = 100). Also, the He/Con_3a in assay [5] is 66.3 relative (control = 100).
